The target in this assay is 4U-3pE-beta-Amyloid. Briefly: SPR; 4U-3pE-beta-Amyloid 0.6 to 4.5 nM.

What is called Kd is the concentration at which binding is half-saturated. Low values mean tighter binding, high ones weaker binding. In general, koff refers to the first-order rate constant of dissociation. What is called kon is the second-order rate constant of association. A low value points to slower complex formation. Turning to Control mAb (antibody), the Kd is 0.0379 nM, the koff is 0.000156 s⁻¹ and the association rate constant (kon) was found to be 4.11e+06 M⁻¹ s⁻¹.

The record behind these values is patent US20250320286A1.
